Columns and labels:
Assay type in all cases: biochemical, Metallosphaera sedula
[1] = substrate: CCCCC/C=C/C(=O)SCCNC(=O)CCNC(=O)[C@H](O)C(C)(C)COP(=O)(O)OP(=O)(O)OC[C@H]1O[C@@H](n2cnc3c(N)ncnc32)[C@H](O)[C@@H]1OP(=O)(O)O; assay: UHPLC, 3-hydroxyoctanoyl-CoA formation; conditions: hydratase reaction, 65 °C, apparent Km, buffer in general 100 mM Tris-HCl pH 7.8
Description: UHPLC, 3-hydroxyoctanoyl-CoA formation on crotonyl-CoA hydratase/(S)-3-hydroxybutyryl-CoA dehydrogenase Msed_0399

[2] = substrate: C/C=C/C(=O)SCCNC(=O)CCNC(=O)[C@H](O)C(C)(C)COP(=O)(O)OP(=O)(O)OC[C@H]1O[C@@H](n2cnc3c(N)ncnc32)[C@H](O)[C@@H]1OP(=O)(O)O; assay: UHPLC, 3-hydroxybutyryl-CoA formation; conditions: hydratase reaction, 100 mM Tris-HCl pH 9, 65 °C, apparent Km
Description: UHPLC, 3-hydroxybutyryl-CoA formation on crotonyl-CoA hydratase/(S)-3-hydroxybutyryl-CoA dehydrogenase Msed_0399

[3] = substrate: CC(C)(COP(=O)(O)OP(=O)(O)OC[C@H]1O[C@@H](n2cnc3c(N)ncnc32)[C@H](O)[C@@H]1OP(=O)(O)O)[C@@H](O)C(=O)NCCC(=O)NCCSC(=O)CCO; assay: Ccr-coupled assay, acryloyl-CoA formation, UHPLC; conditions: dehydratase reaction, 100 mM MOPS/KOH pH 7.0, 42 °C, 1 mM NADPH and NaHCO3 for coupling enzyme, apparent Km
Description: Ccr-coupled assay, acryloyl-CoA formation, UHPLC on crotonyl-CoA hydratase/(S)-3-hydroxybutyryl-CoA dehydrogenase Msed_0399

[4] = substrate: C[C@H](O)CC(=O)SCCNC(=O)CCNC(=O)[C@H](O)C(C)(C)COP(=O)(O)OP(=O)(O)OC[C@H]1O[C@@H](n2cnc3c(N)ncnc32)[C@H](O)[C@@H]1OP(=O)(O)O; assay: (S)-3-hydroxybutyryl-CoA dehydrogenase assay with NAD; conditions: dehydrogenase reaction with NAD, 65 °C, apparent Km
Description: (S)-3-hydroxybutyryl-CoA dehydrogenase assay with NAD on crotonyl-CoA hydratase/(S)-3-hydroxybutyryl-CoA dehydrogenase Msed_0399

[5] = substrate: NC(=O)c1ccc[n+]([C@@H]2O[C@H](COP(=O)(O)OP(=O)(O)OC[C@H]3O[C@@H](n4cnc5c(N)ncnc54)[C@H](OP(=O)(O)O)[C@@H]3O)[C@@H](O)[C@H]2O)c1; assay: (S)-3-hydroxybutyryl-CoA dehydrogenase assay; conditions: with (S)-3-hydroxybutyryl-CoA, 65 °C, apparent Km, varied: cofactor
Description: (§1) (S)-3-hydroxybutyryl-CoA dehydrogenase assay on (S)-3-hydroxybutyryl-CoA dehydrogenase Msed_0389

[6] = substrate: NC(=O)c1ccc[n+]([C@@H]2O[C@H](COP(=O)(O)OP(=O)(O)OC[C@H]3O[C@@H](n4cnc5c(N)ncnc54)[C@H](O)[C@@H]3O)[C@@H](O)[C@H]2O)c1; assay: (S)-3-hydroxybutyryl-CoA dehydrogenase assay; conditions: with (S)-3-hydroxybutyryl-CoA, 65 °C, apparent Km, varied: cofactor
Description: as §1

[7] = substrate: C[C@H](O)CC(=O)SCCNC(=O)CCNC(=O)[C@H](O)C(C)(C)COP(=O)(O)OP(=O)(O)OC[C@H]1O[C@@H](n2cnc3c(N)ncnc32)[C@H](O)[C@@H]1OP(=O)(O)O; assay: (S)-3-hydroxybutyryl-CoA dehydrogenase assay; conditions: 0.5 mM NAD, 65 °C, apparent Km
Description: as §1

[8] = substrate: NC(=O)c1ccc[n+]([C@@H]2O[C@H](COP(=O)(O)OP(=O)(O)OC[C@H]3O[C@@H](n4cnc5c(N)ncnc54)[C@H](OP(=O)(O)O)[C@@H]3O)[C@@H](O)[C@H]2O)c1; assay: (S)-3-hydroxybutyryl-CoA dehydrogenase assay; conditions: with (S)-3-hydroxybutyryl-CoA, 65 °C, apparent Km, varied: cofactor; remark: listed apart in the source
Description: (§2) (S)-3-hydroxybutyryl-CoA dehydrogenase assay on (S)-3-hydroxybutyryl-CoA dehydrogenase Msed_1423

[9] = substrate: NC(=O)c1ccc[n+]([C@@H]2O[C@H](COP(=O)(O)OP(=O)(O)OC[C@H]3O[C@@H](n4cnc5c(N)ncnc54)[C@H](O)[C@@H]3O)[C@@H](O)[C@H]2O)c1; assay: (S)-3-hydroxybutyryl-CoA dehydrogenase assay; conditions: with (S)-3-hydroxybutyryl-CoA, 65 °C, apparent Km, varied: cofactor; remark: listed apart in the source
Description: as §2

[10] = substrate: C[C@H](O)CC(=O)SCCNC(=O)CCNC(=O)[C@H](O)C(C)(C)COP(=O)(O)OP(=O)(O)OC[C@H]1O[C@@H](n2cnc3c(N)ncnc32)[C@H](O)[C@@H]1OP(=O)(O)O; assay: (S)-3-hydroxybutyryl-CoA dehydrogenase assay; conditions: 0.5 mM NAD, 65 °C, apparent Km; remark: listed apart in the source
Description: as §2

[11] = substrate: C[C@H](O)CC(=O)SCCNC(=O)CCNC(=O)[C@H](O)C(C)(C)COP(=O)(O)OP(=O)(O)OC[C@H]1O[C@@H](n2cnc3c(N)ncnc32)[C@H](O)[C@@H]1OP(=O)(O)O; assay: Ccr-coupled dehydratase assay, UHPLC; conditions: dehydratase reaction, 100 mM Tris-HCl pH 7.8, 42 °C, 1 mM NADPH and NaHCO3 for coupling enzyme, apparent Km
Description: Ccr-coupled dehydratase assay, UHPLC on crotonyl-CoA hydratase Msed_0336

[12] = substrate: C=CC(=O)SCCNC(=O)CCNC(=O)[C@H](O)C(C)(C)COP(=O)(O)OP(=O)(O)OC[C@H]1O[C@@H](n2cnc3c(N)ncnc32)[C@H](O)[C@@H]1OP(=O)(O)O; assay: UHPLC, 3-hydroxypropionyl-CoA formation; conditions: hydratase reaction, 100 mM Tris-HCl pH 7.8, 65 °C, apparent Km
Description: UHPLC, 3-hydroxypropionyl-CoA formation on crotonyl-CoA hydratase Msed_0336

[13] = substrate: CCCCC/C=C/C(=O)SCCNC(=O)CCNC(=O)[C@H](O)C(C)(C)COP(=O)(O)OP(=O)(O)OC[C@H]1O[C@@H](n2cnc3c(N)ncnc32)[C@H](O)[C@@H]1OP(=O)(O)O; assay: UHPLC, 3-hydroxyoctanoyl-CoA formation; conditions: hydratase reaction, 100 mM Tris-HCl pH 7.8, 65 °C, apparent Km
Description: UHPLC, 3-hydroxyoctanoyl-CoA formation on crotonyl-CoA hydratase Msed_0336

[14] = substrate: C/C=C/C(=O)SCCNC(=O)CCNC(=O)[C@H](O)C(C)(C)COP(=O)(O)OP(=O)(O)OC[C@H]1O[C@@H](n2cnc3c(N)ncnc32)[C@H](O)[C@@H]1OP(=O)(O)O; assay: UHPLC, 3-hydroxybutyryl-CoA formation; conditions: hydratase reaction, 100 mM Tris-HCl pH 7.8, 65 °C, apparent Km
Description: UHPLC, 3-hydroxybutyryl-CoA formation on crotonyl-CoA hydratase Msed_0336

[15] = substrate: C=C(C)C(=O)SCCNC(=O)CCNC(=O)[C@H](O)C(C)(C)COP(=O)(O)OP(=O)(O)OC[C@H]1O[C@@H](n2cnc3c(N)ncnc32)[C@H](O)[C@@H]1OP(=O)(O)O; assay: UHPLC, 3-hydroxy-2-methylpropionyl-CoA formation; conditions: hydratase reaction, 100 mM Tris-HCl pH 7.8, 65 °C, apparent Km
Description: UHPLC, 3-hydroxy-2-methylpropionyl-CoA formation on crotonyl-CoA hydratase Msed_0336

B1: crotonyl-CoA hydratase/(S)-3-hydroxybutyryl-CoA dehydrogenase Msed_0399 (Metallosphaera sedula DSM 5348) (protein)
chain: MKVTVIGSGVMGHGIAELAAIAGNEVWMNDISTEILQQAMERIKWSLSKLRESGSLKEGVEQVLARIHPETDQAQALKGSDFVIEAVKEDLELKRTIFRNAEAHASPSAVLATNTSSLPISEIASVLKSPQRVVGMHFFNPPVLMPLVEIVRGKDTSDEVVKTTAEMAKSMNKETIVVKDVPGFFVNRVLLRIMEAGCYLVEKGIASIQEVDSSAIEELGFPMGVFLLADYTGLDIGYSVWKAVTARGFKAFPCSSTEKLVSQGKLGVKSGSGYYQYPSPGKFVRPTLPSTSKKLGRYLISPAVNEVSYLLREGIVGKDDAEKGCVLGLGLPKGILSYADEIGIDVVVNTLEEMRQTSGMDHYSPDPLLLSMVKEGKLGRKSGQGFHTYAHEEAKYSTIVVRVEPPLAWIVLNRPTRYNAINGDMIREINQALDSLEEREDVRVIAITGQGRVFSAGADVTEFGSLTPVKAMIASRKFHEVFMKIQFLTKPVIAVINGLALGGGMELALSADFRVASKTAEMGQPEINLGLIPGGGGTQRLSRLSGRKGLELVLTGRRVKAEEAYRLGIVEFLAEPEELESEVRKLANAIAEKSPLAVASAKLAYKLGEETHIWTGTSLEASLFGLLFSTKDFEEGVRAFLEKRKPNFRGE
notes: full-length, untagged, recombinant in E. coli Rosetta 2 (DE3); N-terminal dehydrogenase domain (~40 kDa), C-terminal enoyl-CoA hydratase domain (~20 kDa)
Question: B1 was tested. Which Km [1] did it give?
Answer: Its Km is 80 ± 10 µM.

Question: What about the Km [2] of the same protein?
Answer: Its Km is 970 ± 70 µM.

Question: What about the Km [3] of the same protein?
Answer: Its Km is 60 ± 20 µM.

Question: And the Km [4]?
Answer: The Km was 120 ± 10 µM.

B2: (S)-3-hydroxybutyryl-CoA dehydrogenase Msed_0389 (Metallosphaera sedula DSM 5348) (protein)
chain: MKVFVIGSGVMGSGIGQVFAMAGHEVTLYDVKEEALKKAMEGIRWSLQKLQEKGSVKDVESVLSRIFTSRDLSEARDHLVIEAVFEDIKVKSDVLGRVSPLTDEIIASNTSSLPITELSRAVRNPERFLGMHFFNPPVLMKLVEVIRGDNTSEERFREALDIVKSLGKYPLPVRKDVFGFVVNRILFRLFTSACALLTQYTPHEIDYVAIKELGMPMGLIMLLDYTGLDVNYDISKEAERRGFPFKCDVLEGMVKSGKLGRKSGQGFYDWSKGKPEVKATSGPDPRELLRGAVEEAKWLISQGVVTREELETGLKLGLGMSRGILELGEILGVH
notes: full-length, N-terminal His10-tag (pET16b), recombinant in E. coli Rosetta 2 (DE3)
Question: Which Km [5] does the source give for B2 here?
Answer: Its Km is 1500 ± 300 µM.

Question: What about the Km [6] of the same protein?
Answer: The Km was 12 ± 2 µM.

Question: And the Km [7]?
Answer: The Km was 2.6 ± 1 µM.

B3: (S)-3-hydroxybutyryl-CoA dehydrogenase Msed_1423 (Metallosphaera sedula DSM 5348) (protein)
chain: MRIAVVGSGTMGHGIAEVAAMAGMEVKLIDISWDILNRAKERMYDSLKRLHERGTIRETPDTVMSRIEISVSYDVAKDVDFAIEAVPEILELKRKVFQELDRVVPKESILATNTSSIPISDIGEITSRKEKVIGMHFFNPPPLMKLVEVIPSKYTSEDVTRYTVELAKKMGKTPVRLRVEVPGFVSNRIFLRLLQEACREVESGEATIEEVDSSARNKLKLPMGIFELADYVGLDVAVDLWKVIVERGASDVKCSSYKERVDRKELGVKTGKGFYTYPAPGKYSKVSLPPESKVPPERIISLAVNEGAWLIENNIVNAEEIDTVMRLGFNFPKGLLEMADELGLDKILNALREIHSRGYEAYSPNPLLVKMVSQGQTGKSSGRGFYTYGKT
notes: as for B2
Question: How did the Km [8] turn out when B3 was run?
Answer: Its Km is 5100 ± 500 µM.

Question: And the Km [9]?
Answer: The Km was 30 ± 3 µM.

Question: And the Km [10]?
Answer: Its Km is 5 ± 2 µM.

B4: crotonyl-CoA hydratase Msed_0336 (Metallosphaera sedula DSM 5348) (protein)
chain: MKVLYEERDGISWITFNRPEKLNALDAESWKLLGDHVRRGDSSDSRAIVITGNGRAFSSGDDIGSMTSLNDQREAEDFFNALLYAVDGLIYTNKPVIGAVNGLAYGGGCEILLFMDVVISTRSARFSIPEGRLGLIPPMALSVGYNSIGRSVAWLAITGEEIDAMRAKEIGLVDIVGDDLNLELEKVMARISSMDQGSIKVIKAWLRKSREPIREAIRELSFMSLSTQAKERMKRFLSR
notes: as for B2
Question: Which Km [11] does the source give for B4 here?
Answer: Its Km is 70 ± 20 µM.

Question: What about the Km [12] of the same protein?
Answer: The Km was 70 ± 5 µM.

Question: And the Km [13]?
Answer: The Km was 90 ± 10 µM.

Question: And the Km [14]?
Answer: The Km was 80 ± 10 µM.

Question: And the Km [15]?
Answer: Its Km is 290 ± 50 µM.

— paper PMC7078158, “Enzymes Catalyzing Crotonyl-CoA Conversion to Acetoacetyl-CoA During the Autotrophic CO2 Fixation in Metallosphaera sedula” (Frontiers in Microbiology, 2020)
